The supplement of paper PMC7877785
± gives the uncertainty stated by the source.

Assay: self-splicing fitness, log relative to wild type (ln ratio); higher = more splicing; Tetrahymena group I intron in knt gene, E. coli kanamycin selection, DiMSum; sequences stand for … in CUCUCU…GGAGGGAAAAGUUAUCAGGCAUGCACCUGGUAGCUAGUCUUUAAACCAAUAGAUUGCAUCGGUUUAAAAGGCAAGACCGUCAAAUUGCGGGAAAGGGGUCAACAGCCGUUCAGUACCAAGUCUCAGGGGAAACUUUGAGAUGGCCUUGCAAAGGGUAUGGUAAUAAGCUGACGGACAUGGUCCUAACCACGCAGCCAAGUCCUAAGUCAACAGAUCUUCUGUUGAUAUGGAUGCAGUUCACAGACUAAAUGUCGGUCGGGGAAGAUGUAUUCUUCUCAUAAGAUAUAGUCGGACCUCUCCUUAAUGGGAGCUAGCGGAUGAAGUGAUGCAACACUGGAGCCGCUGGGAACUAAUUUGUAUGCGAAAGUAUAUUGAUUAGUUUUGGAGUACUCGUGGUCG
Outline: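 Library with all eight P1ex-region intron nucleotides randomised, intron inside the knt kanamycin-resistance gene on pET-22b(+), in E. coli BL21(DE3). Cells grew overnight at 37°C or 30°C on LB agar with or without 25 μg/mL kanamycin (plus 100 μg/mL carbenicillin, 50 μM IPTG, 0.2% rhamnose), in six replicate transformations. Pooled colonies were amplicon-sequenced on Illumina HiSeq 2500. DiMSum fitness is the error-weighted combination of wild-type-normalised replicate fold changes, kanamycin versus none.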

Row | Sequence | self-splicing fitness (ln) (30 °C) | self-splicing fitness (ln) (37 °C)
1 | CGCGAGCAAUAUUACGUGAG | -4.51 ± 0.39 | -2.54 ± 0.32
2 | CGCGAGCAAUAUUACGUUCA | -2.43 ± 0.19 | -1.5 ± 0.17
3 | CGCGAGCAAUAUUACGUUUA | -3.98 ± 0.25 | -3.3 ± 0.28
4 | CGCUAGCAAUAUUACGAAAG | -1.17 ± 0.091 | -0.395 ± 0.1
5 | CGCUAGCAAUAUUACGAACC | -2.92 ± 0.2 | -0.219 ± 0.16
6 | CGCUAGCAAUAUUACGACAA | -2.04 ± 0.18 | -1.83 ± 0.2
7 | CGCUAGCAAUAUUACGACAU | -3.31 ± 0.022 | -2.06 ± 0.036
8 | CGCUAGCAAUAUUACGACCC | -0.616 ± 0.16 | -0.956 ± 0.45
9 | CGCUAGCAAUAUUACGACGG | -0.226 ± 0.11 | 0.553 ± 0.14
10 | CGCUAGCAAUAUUACGACUC | -1.4 ± 0.1 | -1.61 ± 0.15
11 | CGCUAGCAAUAUUACGAGAC | -3.36 ± 0.12 | -2.45 ± 0.13
12 | CGCUAGCAAUAUUACGAGUU | -2.49 ± 0.1 | -2.38 ± 0.15
13 | CGCUAGCAAUAUUACGAUAA | -4.27 ± 0.36 | -2.35 ± 0.32
14 | CGCUAGCAAUAUUACGCAAA |  | -3.01 ± 0.47
15 | CGCUAGCAAUAUUACGCACA | -1.37 ± 0.13 | -0.405 ± 0.1
16 | CGCUAGCAAUAUUACGCCAG | -3.09 ± 0.15 | -2.81 ± 0.29
17 | CGCUAGCAAUAUUACGCGCC | -2.52 ± 0.19 | -2.24 ± 0.35
18 | CGCUAGCAAUAUUACGCGGG | -4.55 ± 0.26 | -2.08 ± 0.16
19 | CGCUAGCAAUAUUACGCUUC | -2.39 ± 0.28 | -2.39 ± 0.39
20 | CGCUAGCAAUAUUACGGACA | -0.438 ± 0.14 | -0.65 ± 0.13
21 | CGCUAGCAAUAUUACGGAGC | -2.64 ± 0.2 | -1.84 ± 0.24
22 | CGCUAGCAAUAUUACGGCGG | -1.68 ± 0.089 | -0.662 ± 0.11
23 | CGCUAGCAAUAUUACGGCUG | -1.13 ± 0.12 | -0.227 ± 0.14
24 | CGCUAGCAAUAUUACGGGCG | -2.95 ± 0.28 | -2.74 ± 0.44
25 | CGCUAGCAAUAUUACGUAAA | -2.46 ± 0.2 | -1.33 ± 0.31

Row | Sequence | self-splicing fitness (ln) (30 °C) | self-splicing fitness (ln) (37 °C)
26 | CGCUAGCAAUAUUACGUCAG | -1.4 ± 0.12 | -0.542 ± 0.14
27 | CGCUAGCAAUAUUACGUGCU | -1.82 ± 0.16 | -1.63 ± 0.18
28 | CGCUAGCAAUAUUACGUGGU | -3.55 ± 0.27 | -2.61 ± 0.26
29 | CGCUAGCAAUAUUACGUUAU | -4.99 ± 0.32 | -3.36 ± 0.26
30 | CGCUAGCAAUAUUACGUUCC | -2.83 ± 0.15 | -2.81 ± 0.31
31 | CGGAAGCAAUAUUACGAAAG | -0.838 ± 0.12 | -0.911 ± 0.19
32 | CGGAAGCAAUAUUACGAAGG | -1.17 ± 0.11 | -0.983 ± 0.18
33 | CGGAAGCAAUAUUACGAAUC | -3.29 ± 0.3 | -2.46 ± 0.29
34 | CGGAAGCAAUAUUACGACAC |  | -1.66 ± 0.38
35 | CGGAAGCAAUAUUACGAGCA | -2.83 ± 0.24 | -1.82 ± 0.18
36 | CGGAAGCAAUAUUACGAGUC | -2.83 ± 0.22 | -2.39 ± 0.31
37 | CGGAAGCAAUAUUACGAUCC | -3.21 ± 0.37 | -1.42 ± 0.23
38 | CGGAAGCAAUAUUACGCCCA | -0.0821 ± 0.13 | 0.194 ± 0.2
39 | CGGAAGCAAUAUUACGCCCU | -0.363 ± 0.13 | 0.204 ± 0.15
40 | CGGAAGCAAUAUUACGCCGU | -2.88 ± 0.44 | -1.91 ± 0.28
41 | CGGAAGCAAUAUUACGCUAA | -2.74 ± 0.17 | -3.01 ± 0.29
42 | CGGAAGCAAUAUUACGCUUG |  | -2.42 ± 0.27
43 | CGGAAGCAAUAUUACGCUUU | -2.02 ± 0.18 | -3.26 ± 0.33
44 | CGGAAGCAAUAUUACGGACA | 0.389 ± 0.13 | -0.329 ± 0.15
45 | CGGAAGCAAUAUUACGGCCC | 0.0304 ± 0.18 | 0.0512 ± 0.23
46 | CGGAAGCAAUAUUACGGGGC | -2.49 ± 0.19 | -2.71 ± 0.26
47 | CGGAAGCAAUAUUACGUACA | -0.615 ± 0.13 | -0.219 ± 0.15
48 | CGGAAGCAAUAUUACGUACG | -3.87 ± 0.24 | -2.26 ± 0.21
49 | CGGAAGCAAUAUUACGUAGG | -0.48 ± 0.078 | -1.38 ± 0.12
50 | CGGAAGCAAUAUUACGUAUA | -2.82 ± 0.24 | -2.63 ± 0.3

Row | Sequence | self-splicing fitness (ln) (30 °C) | self-splicing fitness (ln) (37 °C)
51 | CGGAAGCAAUAUUACGUCAG | -1.33 ± 0.13 | -0.154 ± 0.17
52 | CGGAAGCAAUAUUACGUCCA | -0.281 ± 0.097 | 0.585 ± 0.13
53 | CGGAAGCAAUAUUACGUGCU | -3.85 ± 0.24 | -2.32 ± 0.23
54 | CGGAAGCAAUAUUACGUUGG | -1.89 ± 0.071 | -0.688 ± 0.077
55 | CGGCAGCAAUAUUACGAAUA |  | -2.07 ± 0.27
56 | CGGCAGCAAUAUUACGACCU | -0.341 ± 0.089 | -0.0632 ± 0.11
57 | CGGCAGCAAUAUUACGAUGU | -3.85 ± 0.31 | -3.14 ± 0.35
58 | CGGCAGCAAUAUUACGCAGU | -3.02 ± 0.17 | -2.07 ± 0.29
59 | CGGCAGCAAUAUUACGCGCA | -0.939 ± 0.097 | -0.247 ± 0.1
60 | CGGCAGCAAUAUUACGCGCC | -4.3 ± 0.43 | -3.04 ± 0.47
61 | CGGCAGCAAUAUUACGCGCG | -2.65 ± 0.22 | -1.54 ± 0.23
62 | CGGCAGCAAUAUUACGCUUG | -2.4 ± 0.15 | -2.31 ± 0.23
63 | CGGCAGCAAUAUUACGGCAA | -1.1 ± 0.083 | -1.27 ± 0.1
64 | CGGCAGCAAUAUUACGGCCG | -3.13 ± 0.39 | -1.42 ± 0.39
65 | CGGCAGCAAUAUUACGGUCA | -0.0453 ± 0.068 | -0.156 ± 0.083
66 | CGGCAGCAAUAUUACGGUUA | -0.164 ± 0.067 | -0.476 ± 0.059
67 | CGGCAGCAAUAUUACGUAAG | -0.428 ± 0.059 | 0.0199 ± 0.075
68 | CGGCAGCAAUAUUACGUAGG | -0.38 ± 0.075 | 0.0683 ± 0.097
69 | CGGCAGCAAUAUUACGUAUC | -3.9 ± 0.33 | -2.86 ± 0.27
70 | CGGCAGCAAUAUUACGUCAC | -3.84 ± 0.25 | -2.81 ± 0.29
71 | CGGCAGCAAUAUUACGUCCC | -0.557 ± 0.23 | 0.728 ± 0.37
72 | CGGCAGCAAUAUUACGUUCU | -0.518 ± 0.08 | -0.416 ± 0.11
73 | CGGGAGCAAUAUUACGAAAU |  | -1.65 ± 0.44
74 | CGGGAGCAAUAUUACGACAG | -1.7 ± 0.22 | -0.944 ± 0.38
75 | CGGGAGCAAUAUUACGACGC | -4.16 ± 0.46 | -3.31 ± 0.3

Row | Sequence | self-splicing fitness (ln) (30 °C) | self-splicing fitness (ln) (37 °C)
76 | CGGGAGCAAUAUUACGCAAC | -2.66 ± 0.24 | 
77 | CGGGAGCAAUAUUACGCAAU | -3.15 ± 0.39 | 
78 | CGGGAGCAAUAUUACGCACC | -3.47 ± 0.39 | 
79 | CGGGAGCAAUAUUACGCAGG | -3.04 ± 0.36 | -0.973 ± 0.27
80 | CGGGAGCAAUAUUACGCGCU | -3.25 ± 0.32 | 
81 | CGGGAGCAAUAUUACGGAGU | -3.92 ± 0.27 | -2.77 ± 0.2
82 | CGGGAGCAAUAUUACGGAUU | -3.51 ± 0.33 | -1.27 ± 0.28
83 | CGGGAGCAAUAUUACGGCAA | -3.64 ± 0.43 | 
84 | CGGGAGCAAUAUUACGGGGA | -2.04 ± 0.3 | -1.83 ± 0.23
85 | CGGGAGCAAUAUUACGUAAC | -1.35 ± 0.27 | 
86 | CGGGAGCAAUAUUACGUAAG | -1.46 ± 0.17 | -0.321 ± 0.18
87 | CGGGAGCAAUAUUACGUAGG | -1.91 ± 0.099 | -1.6 ± 0.17
88 | CGGGAGCAAUAUUACGUCGU | -3.3 ± 0.26 | -2.35 ± 0.3
89 | CGGGAGCAAUAUUACGUGAU |  | -0.773 ± 0.19
90 | CGGGAGCAAUAUUACGUUGA | -3.82 ± 0.39 | -2 ± 0.23
91 | CGGUAGCAAUAUUACGAAUU | -2.07 ± 0.24 | -2.34 ± 0.24
92 | CGGUAGCAAUAUUACGACUC | -1.01 ± 0.32 | 1.23 ± 0.43
93 | CGGUAGCAAUAUUACGAUCA | -0.493 ± 0.085 | 0.196 ± 0.12
94 | CGGUAGCAAUAUUACGAUGC | -3.7 ± 0.2 | -0.598 ± 0.13
95 | CGGUAGCAAUAUUACGAUUU | -2.17 ± 0.17 | -0.333 ± 0.15
96 | CGGUAGCAAUAUUACGCAAU |  | -3.67 ± 0.46
97 | CGGUAGCAAUAUUACGCAGC | -2.14 ± 0.24 | -1.72 ± 0.31
98 | CGGUAGCAAUAUUACGCCAC | -3.5 ± 0.39 | -2.03 ± 0.27
99 | CGGUAGCAAUAUUACGCCGA | -0.997 ± 0.24 | -1.5 ± 0.25
